Test results from paper PMC6255954 (British Journal of Pharmacology, 2018).

Columns and labels:
[1] = molecular target: T1, GFP‐tagged human NOP receptor in HEK cells (HEK_(hNOP‐GFP)) (human, UniProt P41146 1-370); assay: cell-based or functional assay
[2] = molecular target: T1, GFP‐tagged human NOP receptor in HEK …; assay: radioligand binding; displacement of [3H]-N/OFQ in HEK_(hNOP) and HEK_(hNOP-GFP) cells, room temperature; details: one partner purified
[3] = molecular target: T2, human N/OFQ peptide (NOP) receptor, recombinant in HEK cells (HEK_(hNOP)) (human, UniProt P41146 1-370); assay: as above; details: one partner purified
T2 construct: nociceptin/orphanin FQ (N/OFQ) peptide receptor (NOP), human, recombinant in HEK cells, no GFP; also called HEKNOP; source: HEK cells expressing the recombinant NOP receptor; live cells on coverslips (confocal) and radioligand displacement
T2 sequence (P41146 whole entry): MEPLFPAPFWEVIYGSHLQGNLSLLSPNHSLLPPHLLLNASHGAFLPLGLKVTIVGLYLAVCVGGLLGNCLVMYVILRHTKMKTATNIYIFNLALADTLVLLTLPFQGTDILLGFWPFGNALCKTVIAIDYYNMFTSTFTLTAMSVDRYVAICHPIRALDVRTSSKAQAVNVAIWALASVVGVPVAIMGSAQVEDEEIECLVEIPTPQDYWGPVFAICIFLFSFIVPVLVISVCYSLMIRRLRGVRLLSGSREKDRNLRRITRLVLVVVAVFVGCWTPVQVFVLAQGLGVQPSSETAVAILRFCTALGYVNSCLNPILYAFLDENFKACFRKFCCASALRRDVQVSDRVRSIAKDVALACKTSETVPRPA

[4] = molecular target: T1, GFP‐tagged human NOP receptor in HEK …; assay: confocal microscopy of a fluorescent ligand on live cells; N/OFQ_(ATTO594) added cumulatively (1 pM-100 nM) to HEK_(hNOP) or HEK_(hNOP-GFP) cells on coverslips, 5 min at 4°C in Krebs buffer pH 7.4, washed, imaged with the 594 nm laser; corrected total cell fluorescence; saturation curve; details: one partner purified
[5] = molecular target: T2, human N/OFQ peptide (NOP) receptor, …; assay: as above; details: one partner purified
[6] = molecular target: T3, human N/OFQ peptide (NOP) receptor, recombinant in CHO cells (CHO_(hNOP)) (human, UniProt P41146 1-370); assay: radioligand binding; displacement of ~0.8 nM [3H]-N/OFQ from CHO_(hNOP) membranes (20-40 ug protein) by 1 pM-10 uM ligand; 50 mM Tris-HCl pH 7.4 with 0.5% BSA, room temperature, 1 h, vacuum filtration; non-specific binding with 1 uM N/OFQ; details: one partner purified
T3 construct: nociceptin/orphanin FQ (N/OFQ) peptide receptor (NOP), human, recombinant in CHO cells; used as cell membranes; source: CHO cells, stably transfected, cell membranes
T3 sequence (P41146 whole entry): as above

T1 sequence (P41146 whole entry): as above

- pEC50, inhibition of forskolin-stimulated cAMP formation in HEK_(hNOP-GFP) cells, 0.1 pM-1 μM, 37°C, 15 min [1]: 9.73
- pKi [2]: 8.98
- pKi [3]: 9.14
- pKd [4]: 8.53
- pKd [5]: 9.51
- pKi [6]: 9.21
Binder: FGGFTGARKSARKLANQC (ATTO 594 on Cys18; C-terminal amide (NH2)) [[Cys(ATTO 594)^18]N/OFQ‐NH2]
